# B1: mouse R-spondin 2 Furin tandem repeat fragment (mRspo2_(Fu1-Fu2), I39-G144) (domain or fragment)
# chain: ETGICKGCLSCSKDNGCSRCQQKLFFFLRREGMRQYGECLHSCPSGYYGHRAPDMNRCARCRIENCDSCFSKDFCTKCKVGFYLHRGRCFDECPDGFAPLDETMECVEGT
# notes: residues left by the vector after removal of the signal peptide; mouse R-spondin 2, Fu1-Fu2, I39-G144; printed ends ICKGCL...MECVEG; vector residue before the His10 tag; not shown: His10, C-terminal, kept
# B2: mouse ZNRF3 ectodomain (mZNRF3_(ecto)) (domain or fragment, UniProt Q5SSZ7 53-216, looked up)
# chain: KETAFVEVVLFESSPSGDYTTHTTGLTGRFSRAGAMLSAEGEIVQMHPLGLCNNNDEEDLYEYGWVGVVKLEQPELDPKPCLTVLGKAKRAVQRGATAVIFDVSENPEAIDQLNQGSEDPLKRPVVYVKGADAIKLMNIVNKQKVARARIQHLPPRQPTEYFDM
# notes: mouse ZNRF3 ectodomain; chain C of PDB 4C99 was the search model; source: produced as described (Zebisch et al., 2013); large scale mammalian expression, purified
# B3: human LGR5 ectodomain variant (hLGR5_(ecto)), R32-S543 with the loop A488-H537 replaced by an NGNNGD linker (domain or fragment)
# chain: ETGRGCPTHCHCEPDGRMLLRVDCSDLGLSELPSNLSVFTSYLDLSMNNISQLLPNPLPSLRFLEELRLAGNALTYIPKGAFTGLYSLKVLMLQNNQLRHVPTEALQNLRSLQSLRLDANHISYVPPSCFSGLHSLRHLWLDDNALTEIPVQAFRSLSALQAMTLALNKIHHIPDYAFGNLSSLVVLHLHNNRIHSLGKKCFDGLHSLETLDLNYNNLDEFPTAIRTLSNLKELGFHSNNIRSIPEKAFVGNPSLITIHFYDNPIQFVGRSAFQHLPELRTLTLNGASQITEFPDLTGTANLESLTLTGAQISSLPQTVCNQLPNLQVLDLSYNLLEDLPSFSVCQKLQKIDLRHNEIYEIKVDTFQQLLSLRSLNLAWNKIAIIHPNAFSTLPSLIKLDLSSNLLSSFPITGLHGLTHLKLTGNHALQSLISSENFPELKVIEMPYAYQCCAFGVCENNGNNGDSVQCSPSGT
# notes: residues left by the vector pHLsec after removal of the signal peptide; human LGR5 ectodomain, R32 up to the residue before the replaced loop A488-H537; printed ends RGCPTH...FGVCEN; linker that replaces A488-H537; human LGR5 after the replaced loop; vector residues before the His10 tag; Cloned into pHLsec H10; not shown: His10, C-terminal, kept
# Columns and labels:
# [1] = target: B3; test: crystal structure; hLGR5_(ecto)–mRspo2_(Fu1-Fu2) complex from coexpression, 5.9 mg/ml; sitting drop; 25% (w/v) PEG 3350, 200 mM lithium sulphate, 100 mM bis-Tris pH 5.5; 2.2 Å; two copies of the complex in the asymmetric unit; settings: both partners purified
# [2] = target: the molecule itself; test: crystal structure; approximately stoichiometric amounts of the hLGR5_(ecto)–mRspo2_(Fu1-Fu2) complex and mZNRF3_(ecto) mixed in 10 mM Tris/HCl pH 9.0, 1000 mM NaCl, 1.3 mg/ml; crystals in 100 mM ammonium acetate, 600 mM NaCl, 50 mM MES pH 6.0, 5 mM MgSO4; 4.8 Å, anisotropic; 2:2:2 complex generated by crystallographic symmetry
# [3] = target: T1, hLGR5_(ecto)–mRspo2_(Fu1-Fu2) complex, formed beforehand by coexpression (human | mouse, UniProt O75473 32-487; Q8BFU0 39-144); test: as above; settings: both partners purified
# T1 construct: as the chain of m1: vector residues; as the chain of m1: human LGR5 ectodomain, R32 up to the residue before the replaced loop A488-H537; printed ends RGCPTH...FGVCEN; as the chain of m1: linker that replaces A488-H537; as the chain of m1: human LGR5 after the replaced loop; as the chain of m1: vector residues before the His10 tag; as the chain of m2: vector residues; as the chain of m2: mouse …
# T1 chain 1: B3 chain
# T1 chain 2: B1 chain
# [4] = target: B1; test: crystal structure; hLGR5_(ecto)–mRspo2_(Fu1-Fu2) complex from coexpression, 5.9 mg/ml; sitting drop; 25% (w/v) PEG 3350, 200 mM lithium sulphate, 100 mM bis-Tris pH 5.5; 2.2 Å; two copies of the complex in the asymmetric unit; settings: both partners purified
# [5] = target: the molecule itself; test: as above
binder,measurement,setting,value
B1,stoichiometry N,[1],1
B2,stoichiometry N,[2],2
same,stoichiometry N,[3],1
B3,binding result,[4],binds
same,stoichiometry N,[5],2
